Test results taken from patent US20260008852A1 (CRYSTAL BIOSCIENCE, published 2026).

T1: His-tagged mouse B7-H3 (mouse, UniProt Q8VE98 29-244, limits assumed)
T1 construct: Bought His-tagged protein coated on the ELISA plate; also called mu B7-H3; murine B7-H3
T1 sequence (looked up): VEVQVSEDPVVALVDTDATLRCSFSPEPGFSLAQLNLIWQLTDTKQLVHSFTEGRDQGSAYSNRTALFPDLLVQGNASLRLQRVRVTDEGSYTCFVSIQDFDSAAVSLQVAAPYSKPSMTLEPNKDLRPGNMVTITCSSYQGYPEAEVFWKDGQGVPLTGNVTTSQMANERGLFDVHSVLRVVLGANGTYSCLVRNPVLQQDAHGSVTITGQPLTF

T2: His-tagged human B7-H3 (human, UniProt Q5ZPR3-2 29-245, limits assumed)
T2 construct: Bought His-tagged protein coated on the ELISA plate; also called hu B7-H3; CD276
T2 sequence (looked up): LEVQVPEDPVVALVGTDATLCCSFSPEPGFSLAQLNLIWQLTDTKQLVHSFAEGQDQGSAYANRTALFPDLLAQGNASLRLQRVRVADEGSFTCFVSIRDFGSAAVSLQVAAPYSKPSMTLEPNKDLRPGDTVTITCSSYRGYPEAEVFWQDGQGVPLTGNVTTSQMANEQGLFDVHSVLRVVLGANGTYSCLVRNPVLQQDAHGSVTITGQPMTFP

T3: His-tagged cynomolgus monkey B7-H3 (cynomolgus monkey)
T3 chain: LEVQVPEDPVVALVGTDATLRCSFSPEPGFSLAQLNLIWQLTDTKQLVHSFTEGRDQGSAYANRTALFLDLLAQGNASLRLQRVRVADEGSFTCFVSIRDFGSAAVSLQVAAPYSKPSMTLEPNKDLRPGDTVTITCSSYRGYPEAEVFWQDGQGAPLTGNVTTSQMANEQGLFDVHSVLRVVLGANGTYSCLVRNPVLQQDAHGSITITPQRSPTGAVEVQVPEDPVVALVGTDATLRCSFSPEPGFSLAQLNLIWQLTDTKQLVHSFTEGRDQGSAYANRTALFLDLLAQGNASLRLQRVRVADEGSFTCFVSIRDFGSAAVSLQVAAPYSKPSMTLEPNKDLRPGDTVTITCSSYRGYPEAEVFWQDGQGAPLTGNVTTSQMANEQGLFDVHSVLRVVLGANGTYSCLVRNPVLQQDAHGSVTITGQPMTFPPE

T4: B7-H3 on B7-H3-expressing CHO cells (Genescript) (UniProt Q5ZPR3 29-534, limits assumed)
T4 construct: whole, on cells; also called CHO-K1/B7-H3; MFI B7-H3
T4 sequence (looked up): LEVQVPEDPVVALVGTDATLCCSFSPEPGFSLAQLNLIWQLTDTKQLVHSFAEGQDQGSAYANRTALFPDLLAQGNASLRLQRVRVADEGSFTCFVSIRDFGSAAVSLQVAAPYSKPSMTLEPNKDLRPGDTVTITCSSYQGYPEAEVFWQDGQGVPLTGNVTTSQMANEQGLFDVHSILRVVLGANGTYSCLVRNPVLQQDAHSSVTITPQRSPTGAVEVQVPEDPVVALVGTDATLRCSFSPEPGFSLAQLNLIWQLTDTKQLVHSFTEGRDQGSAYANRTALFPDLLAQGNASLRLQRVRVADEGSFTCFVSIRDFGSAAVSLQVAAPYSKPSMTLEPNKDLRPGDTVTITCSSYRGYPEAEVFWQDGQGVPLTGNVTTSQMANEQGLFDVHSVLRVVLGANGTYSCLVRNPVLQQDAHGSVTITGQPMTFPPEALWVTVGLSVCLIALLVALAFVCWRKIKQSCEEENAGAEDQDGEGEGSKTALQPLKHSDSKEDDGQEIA


How the values were obtained:
[1] = biological target: T1, His-tagged mouse B7-H3; experiment: ELISA, coated His-tagged antigen, scFv-Fc 1 ug/ml
Protocol: (§1) The variable regions of heavy and light chains were cloned and assembled into a single chain Fv-Fc (ScFv-Fc) mammalian expression vector. Sanger sequencing was performed by GeneWiz and sequences were evaluated using DNASTAR Lasergene 15. Unique scFv-Fes were transiently expressed in Expi293 cells (Life Technologies, #A14527) grown in Expi293 Expression Medium (Life Technologies, #A1435101) after transfection using the ExpiFectamine transfection reagent and supplements (Life Technologies, #A14524). Cells were incubated for 3-5 days with shaking at 37° C. in a 5% CO2 humidified incubator.

[2] = biological target: T2, His-tagged human B7-H3; experiment: ELISA, coated His-tagged antigen, scFv-Fc 1 ug/ml
Protocol: as §1

[3] = biological target: T3, His-tagged cynomolgus monkey B7-H3; experiment: ELISA, coated His-tagged antigen, scFv-Fc 1 ug/ml
Protocol: as §1

[4] = biological target: T2, His-tagged human B7-H3; experiment: ELISA OD450 on hu B7-H3 over OD450 on mu B7-H3
Protocol: as §1

[5] = biological target: T4, B7-H3 on B7-H3-expressing CHO cells …; experiment: flow cytometry, B7-H3-expressing CHO cells, 10 ug/ml
Protocol: Binding of anti-B7-H3 antibodies to cell lines was assessed by flow cytometry. Briefly, approximately 1.5 e5 B7-H3-expressing CHO cells (Genescript) or parent CHO cells (ATCC) were resuspended in FACS buffer (PBS/1% BSA/0.01% NaN3) containing 10 μg/ml of anti-B7-H3 antibodies and incubated for 60 min on ice. […] Cells were then washed twice, resuspended in FACS buffer, and read on an Attune Flow Cytometer (Life Technologies). Data are expressed as Mean Fluorescent Intensities (MFI).

| Binder | ELISA OD450 @ 1 ug/ml [1] [OD450] | ELISA OD450 @ 1 ug/ml [2] [OD450] | ELISA OD450 @ 1 ug/ml [3] [OD450] | hu:mu ratio [4] | MFI @ 10 ug/ml [5] [MFI] |
| --- | --- | --- | --- | --- | --- |
| 40633p1.1.G11 (scFv, V domains shown, Tested as scFv-Fc (Expi293 supernatant)) VH: EVQLLESGGGLVQPGGSLRLSCAASGFTVSYYGMSWVRQAPGKGLEWVSVIKQDGSEEYYADSVKGRFTISRDNSKNTLYLQMNSPRAEDTAVYYCARHWNDYSNGMNVWGQGTTVTVSS VL: QSVLTQPPSASGTPGQRVTISCSGSTSNVGDRYVYWYQQLPGTAPKLLIYLDDQRPSGVPDRFSGSKSGTSASLAISGLQSEDEADYYCASWDASLNGWVFGGGTKLTVL | 1.83 | 2.05 | 1.72 | 1.12 | 75900 |
| 40633p1.2.E1 (scFv, V domains shown, Tested as scFv-Fc (Expi293 supernatant)) VH: EVQLLESGRGLVQPGGSLRLSCAASGFTVSYYGMSWVRQAPGKGLEWVSVIKQDGSEEYYADSVKGRFTISRDNSKNTLYLQMNSLRAEDTAVYYCARHWNDYSNGMNVWGQGTTVTVSS VL: QSVLTQPPSASGTPGQRVTISCSGSTSNVGDRYVYWYQQLPGTAPKLLIYLDDQRPSGVPDRFSGSKSGTSASLAISGLQSEDEADYYCASWDASLNGWVFGGGTKLTVL | 1.98 | 1.9 | 1.95 | 0.961 | 64700 |
| 40633p1.2.A8 (scFv, V domains shown, Tested as scFv-Fc (Expi293 supernatant)) VH: EVQLLESGGGLLQPGGSLRLSCAASGFSFSSYGMHWVRQAPGKGLEWVAAINSDGSRIYYADSVKGRFTISRDNSKNTLYLQMNSLRAEDTAVYYCTKYYYHYAMDVWGQGTTVTVSS VL: QSVLTQPPSASGTPGQRVTISCSGSRSDIGATTVNWYQQLPGTAPKLLIYQSHLRPSGVPDRFSGSKSGTSASLAISGLQSEDEADYYCASWDASLNTWVFGGGTKLTVL | 1.95 | 2.17 | 2.16 | 1.11 | 62200 |
| 40633p1.1.B12 (scFv, V domains shown, Tested as scFv-Fc (Expi293 supernatant)) VH: EVQLLESGGGLLQPGGSLRLSCAASGFSFSSYGMHWVRQAPGKGLEWVAAINSDGSRIYYADSVKGRFTISRDNSKNTLYLQMNSLRAEDTAVYYCTKYYYHYAMDVWGQGTTVTVSS VL: QSVLTQPPSASGTPGQRVTISCSGSRSDIGATTVNWYQQLPGTAPKLLTYQSHLRPSGVPDRFSGSKSGTSASLAISGLQSEDEADYYCASWDASLNTWVFGGGTKLTVL | 1.75 | 1.83 | 1.72 | 1.04 | 65400 |
| 40633p1.1.E4 (scFv, V domains shown, Tested as scFv-Fc (Expi293 supernatant)) VH: EVQLLESGGGLVQPGGSLRLSCAASGFTFSSYWMSWVRQAPGKGLEWVSGISSSGSATYYADSVKGRFTISRDNSKNTLYLQMNSLRAEDTAVYYCARWNDYDIMDVWGQGTTVTVSS VL: not shown | 1.51 | 1.95 | 1.86 | 1.29 | 80000 |

Results, then the binder that gave them:

| ELISA OD450 @ 1 ug/ml [1] [OD450] | ELISA OD450 @ 1 ug/ml [2] [OD450] | ELISA OD450 @ 1 ug/ml [3] [OD450] | hu:mu ratio [4] | MFI @ 10 ug/ml [5] [MFI] | Binder |
| --- | --- | --- | --- | --- | --- |
| 1.97 | 1.95 | 1.7 | 0.991 | 76400 | 40633p1.1.A7 (scFv, V domains shown, Tested as scFv-Fc (Expi293 supernatant)) VH: EVQLLESGGGLVQPGGSLRLSCAASGFTVSYYGMSWVRQAPGKGLEWVSAIKQDGSEKYYADSVKGRFTISRDNSKNTLYLQMNSLRAEDTAVYYCARHWNDYSNAMNVWGQGTTVTVSS VL: QSVLTQPPSASGTPGQRVTISCSGSTSNIGRESVYWYQQLPGTAPKLLIYTIDQRPSGVPDRFSGSKSGTSASLAISGLQSEDEAVYYCASWDASLNGWVFGGGTKLTVL |
| 1.83 | 2.04 | 1.89 | 1.11 | 74700 | 40633p1.1.B3 (scFv, V domains shown, Tested as scFv-Fc (Expi293 supernatant)) VH: EVQLLESGGGLVQPGGSLRLSCAASGFTVSYYGMSWVRQAPGKGLEWVSAIKQDGSEKYYADSVKGRFTISRDNSKNTLYLQMNSLRAEDTAVYYCARHWNDYSNAMNVWGQGTTVTVSS VL: QSVLTQPPSASGTPGQRVTISCSGSTSNIGRESVYWYQQLPGTAPKLLIYTIDQRPSGVPDRFSGSKSGTSASLAISGLQSEDEADYYCGTWDDSLNAWVFGGGTKLTVL |
| 1.91 | 1.96 | 2.04 | 1.03 | 68800 | 40633p1.2.F3 (scFv, V domains shown, Tested as scFv-Fc (Expi293 supernatant)) VH: EVQLLESGGGLVQPGGSLRLSCAASGFTVSYYGMSWVRQAPGKGLEWVSVIKQDGSEEYYADSVKGRFTISRDNSKNTLYLQMNSLRAEDTAVYYCARHWNDYSNGMNVWGQGTTVTVSS VL: not shown |
| 0.886 | 1.78 | 2.01 | 2.01 | 53100 | 40633p1.2.C3 (scFv, V domains shown, Tested as scFv-Fc (Expi293 supernatant)) VH: EVQLLESGGGLVQPGGSLRLSCAASGFTVSYYGMSWVRQAPGKGLEWVSAIKQDGSEKYYADSVKGRFTISRDNSKNTLYLQMNSLRAEDTAVYYCARHWNDYSNAMNVWEQGTTVTVSS VL: QSVLTQPPSASGTPGQRVTISCSGSNSNVGGNYVSWYQQLPGTAPKLLIYRNSQRPSGVPDRFSGSKSGTSASLAISGLQSEDEAVYYCASWDASLNGWVFGGGTKLTVL |
| 1.85 | 2.08 | 2.41 | 1.13 | 67600 | 40633p1.2.G9 (scFv, V domains shown, Tested as scFv-Fc (Expi293 supernatant)) VH: EVQLLESGGGLLQPGGSLRLSCAASGFSFSSYGMHWVRQAPGKGLEWVAAINSDGSRIYYADSVEGRFTISRDNSKNTLYLQMNSLRAEDTAVYYCTKYYYHYAMDVWGQGTTVTVSS VL: QSVLTQPPSASGTPGQRVTISCSGSRSDIGATTVNWYQQLPGTAPKLLIYQSHLRPSGVPDRFSGSKSGTSASLAISGLQSEDEADYYCASWDASLNTWVFGGGTKLTVL |
| 1.85 | 2.09 | 1.65 | 1.13 | 81100 | 40633p1.1.C11 (scFv, V domains shown, Tested as scFv-Fc (Expi293 supernatant)) VH: EVQLLESGGGLVQPGGSLRLSCAASGFTFSSYWMSWVRQAPGKGLEWVAGINRNGGTTYYADSVKGRFTISRDNSKNTLYLQMNSLRAEDTAVYYCARWNDYDIMDVWGQGTTVTVSS VL: not shown |
